Target: SARS-CoV-2 Spike S2 protein fused to the pilot peptide CilPP, on S-EVs (SARS-CoV-2)
Assay: non-reducing SDS-PAGE and Western blot

SARS-CoV-2 Spike S2 protein fused to the pilot peptide CilPP, on S-EVs (domain or fragment)
stoichiometry N: 3
